Results as given in patent US20230002497A1 (INSERM INSTITUT NATIONAL DE LA SANTE ET DE LA RECHERCHE …, published 2023).

Target: T1, recombinant human IL-20Rb (human, UniProt Q6UXL0 30-233)
T1 construct: also called human recombinant IL-20RB; recombinant IL-20RB
T1 sequence: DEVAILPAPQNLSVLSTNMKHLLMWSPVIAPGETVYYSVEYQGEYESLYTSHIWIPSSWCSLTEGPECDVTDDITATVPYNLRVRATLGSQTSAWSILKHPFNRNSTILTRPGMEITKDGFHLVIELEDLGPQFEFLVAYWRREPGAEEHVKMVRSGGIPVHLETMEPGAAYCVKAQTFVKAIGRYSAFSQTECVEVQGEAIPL
Experiment: ELISA on coated recombinant IL-20Rb (FIG. 8)

binding result: binds
B1: B7 antibody (native B7 clone), human anti-IL-20Rb antibody (antibody, mouse IgG2a, V domains shown)
VH: EVQLVESGGSLVKPGGSLRLSCAASGFTFSNYSMNWVRQAPGKGLEWISYISGSSRYISYADFVKGRFTISRDNATNSLYLQMNSLRAEDTAVYYCVRSYYGMDVWGRGTLVTVSS
VL: QSVLTQPASVSGSPGQSITISCAGTSSDVGGNYYVSWYQQHPGKAPKLMIYGDSYRPSGVSNRFSGSKSGNTASLTISGLQAEDEADYYCSSYTYYSTRVFGGGTKLAVLG
